From patent publication US20250051735A1 (VANDERBILT UNIVERSITY, published 2025) come the findings set out here.

The data set deals with the molecule itself. In words: sedimentation velocity analytical ultracentrifugation (self-association). The procedure: Sedimentation velocity data were collected at 50,000 rpm and 20° C. on a Beckman Coulter ProteomeLab XL-I analytical ultracentrifuge following standard protocols (Zhao, H., et al. Curr Protoc Protein Sci, 2013 Chapter 20, Unit20 12). 2-channel, 12 mm centerpiece cells were used, and sedimentation was monitored with the absorbance (280 nm) and Rayleigh interference (655 nm) detection systems. A continuous c(s) distribution of Lamm equation solutions, as implemented in SEDFIT (Schuck, P. Biophys J 2000 78:1606-1619), modeled the sedimentation data. […] (Cole, J. L., et al. Methods Cell Biol 2008 84:143-179) provided the solution densities ρ, solution viscosities η, and protein partial specific volumes required for the analysis.
The N-terminus is required for transposase dimerization prior to transposon end binding. Although an attempt was made to explore the role of the piggyBac transposase N-terminus using purified proteins, no soluble N-terminally truncated transposases was recovered under conditions successfully used for the WT transposase in EXPI293F cells (Chen, Q., et al. Nat Commun, 2020 11:3446). To circumvent this, a TEV protease cleavage site was introduced between resides 74 and 75 which allowed expression and purification of a full-length protein and then proteolytical removal of the first 74 amino acids.

B1: PB74-539 transposase generated by proteolytic cleavage (TEV-cleaved TEVΔ74PB1-539) (enzyme)
chain: GSSLASNRILTLPQRTIRGKNKHCWSTSKSTRRSRVSALNIVRSQRGPTRMCRNIYDPLLCFKLFFTDEIISEIVKWTNAEISLKRRESMTGATFRDTNEDEIYAFFGILVMTAVRKDNHMSTDDLFDRSLSMVYVSVMSRDRFDFLIRCLRMDDKSIRPTLRENDVFTPVRKIWDLFIHQCIQNYTPGAHLTIDEQLLGFRGRCPFRMYIPNKPSKYGIKILMMCDSGTKYMINGMPYLGRGTQTNGVPLGEYYVKELSKPVHGSCRNITCDNWFTSIPLAKNLLQEPYKLTIVGTVRSNKREIPEVLKNSRSRPVGTSMFCFDGPLTLVSYKPKPAKMVYLLSSCDEDASINESTGKPQMVMYYNQTKGGVDTLDQMCSVMTCSRKTNRWPMALLYGMINIACINSFIIYSHNVSSKGEKVQSRKKFMRNLYMSLTSSFMRKRLEAPTLKRYLRDNISNILPNE
For the protein B1, the binding result is given as “no binding”.
